Assays:
[1] = biological target: T1, rat brain farnesyl:protein transferase (rat, UniProt Q04631 2-377; Q02293 1-437); experiment: cell-based or functional assay
[2] = biological target: T1, rat brain farnesyl:protein transferase; experiment: cell-based or functional assay; remark: listed apart in the source

Binder	Concentration For 50% Inhibition [1] [µM]	concentration giving 50% inhibition [2] [µM]	other results
CIIC	0.35	–	–
CVIM	0.15	–	–
CLIL	17	–	–
CSIM	0.2	–	–
CVFM	–	0.025	fold increase in affinity for the enzyme against CVIM [2]: 6 fold
CAIM	0.15	–	–
CCVQ	0.35	–	–
CVLS	3	–	–
CVLM	0.15	–	–
CVAM	–	–	fold decrease in affinity for the enzyme against CVIM, as estimated by the concentration required for 50% inhibition [2]: > 30 fold
CIKS	> 100	–	–
CVIL	11	12	–
CVIF	–	0.5	–
CIIM	0.15	–	–
CVIS	1	–	–
CEIM	–	1.5	–

Now from value to binder, other results behind:

Concentration For 50% Inhibition [1] [µM]	concentration giving 50% inhibition [2] [µM]	Binder	other results
0.15	–	CVVM	–
5	–	CVIA	fold decrease in affinity for the enzyme against CVIM, as estimated by the concentration required for 50% inhibition [2]: > 30 fold
0.35	–	CIIS	–
–	8	CPIM	–
30	–	CTVA	–
22	–	CLLL	–
–	20	CVPM	–
–	4	CGIM	–
–	0.7	CKIM	–
100	–	CAIL	–

Reference: patent US6790633
